What all share (test): SPR, captured antibody;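 also: antibody captured on a sensor chip, Fcγ receptor flowed over at 25 °C, receptor binding normalized to the captured antibody amount and expressed relative to the reference antibody ×100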
For orientation: In SPR one partner is held on a chip, and binding of the other changes the refractive index at the surface.

In one assay the target is T1, human FcγRIa (human, UniProt P12314 16-292, limits assumed).
T1 construct: also called FcgRIa; hFcgRIa

For a further assay, the target named is T2, human FcγRIIa(R) (human, UniProt P12318 36-217).
T2 construct: also called FcgRIIaR; hFcgRIIa(R)
T2 chain: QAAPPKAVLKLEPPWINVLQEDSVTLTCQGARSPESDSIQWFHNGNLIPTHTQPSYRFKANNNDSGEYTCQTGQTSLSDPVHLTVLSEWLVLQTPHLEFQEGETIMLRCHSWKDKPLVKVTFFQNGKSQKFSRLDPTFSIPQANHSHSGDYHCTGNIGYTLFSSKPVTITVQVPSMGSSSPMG

For the next assay, the target named is T3, human FcγRIIa(H) (human, UniProt P12318 36-217).
T3 construct: also called FcgRIIaH; hFcgRIIa(H)
T3 sequence: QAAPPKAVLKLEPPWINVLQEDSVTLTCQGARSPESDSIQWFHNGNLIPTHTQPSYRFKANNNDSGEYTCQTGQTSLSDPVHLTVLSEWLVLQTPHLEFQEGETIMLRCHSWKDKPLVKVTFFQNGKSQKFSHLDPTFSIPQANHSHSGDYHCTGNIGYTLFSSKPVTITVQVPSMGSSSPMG

A further assay addresses T4, human FcγRIIb (human, UniProt P31994 43-217, limits assumed).
T4 construct: also called FcgRIIb; hFcgRIIb
T4 sequence: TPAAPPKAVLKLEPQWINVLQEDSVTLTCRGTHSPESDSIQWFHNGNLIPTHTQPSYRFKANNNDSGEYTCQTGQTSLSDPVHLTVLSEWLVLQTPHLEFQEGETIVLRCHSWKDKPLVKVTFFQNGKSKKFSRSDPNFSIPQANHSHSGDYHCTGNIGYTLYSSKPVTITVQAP

T1 sequence (P12314 16-292 limits assumed): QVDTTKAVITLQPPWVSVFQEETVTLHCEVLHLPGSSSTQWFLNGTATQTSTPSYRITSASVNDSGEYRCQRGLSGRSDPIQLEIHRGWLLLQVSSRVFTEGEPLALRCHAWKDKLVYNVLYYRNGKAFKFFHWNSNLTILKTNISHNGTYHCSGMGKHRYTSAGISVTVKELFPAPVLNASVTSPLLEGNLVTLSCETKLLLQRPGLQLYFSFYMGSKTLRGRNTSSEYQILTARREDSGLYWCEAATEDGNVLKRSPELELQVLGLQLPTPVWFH
Procedure for human FcγRIIa(H): (§1) Interaction between each modified antibody and Fcγ receptor prepared in the manner described above was analyzed using the BIACORE™ T100 surface plasmon resonance system (GE Healthcare), BIACORE™ T200 surface plasmon resonance system (GE Healthcare), BIACORE™ A100 surface plasmon resonance system or BIACORE™ 4000 surface plasmon resonance system. HBS-EP+ (GE Healthcare) was used for the running buffer, and measurements were carried out at 25° C. The chips used were chips in which antigen peptides, Protein A (Thermo Scientific), Protein A/G (Thermo Scientific) or Protein L (ACTIGEN® protein (Alltech or BioVision) were immobilized on the Series S Sensor Chip CMS (GE Healthcare) or Series S Sensor Chip CM4 (GE Healthcare) by amine coupling, or chips in which preliminarily biotinylated antigen peptides were allowed to interact and then immobilized on the Series S Sensor Chip SA (certified) (GE Healthcare). The target antibodies were captured on these sensor chips, Fcγ receptor diluted with the running buffer was allowed to interact, followed by measurement of the amount of bound antibody. The amounts bound were compared between antibodies. However, since the amount of Fcγ receptor bound depends on the amount of captured antibody, the values used for comparison were first corrected by dividing the amount of Fcγ receptor bound by the captured amount of each antibody. Through reaction with 10 mM glycine-HCl at pH 1.5, the sensor chips were regenerated by washing off antibody captured on the sensor chips and used repeatedly.
(§2) Binding strength was evaluated according to the following method based on the results of analyzing the interaction with each FcγR. […] That value was then further multiplied by 100, and the resulting value was used as an indicator of relative binding activity to each FcγR.
Procedure for human FcγRIIa(R): as §1, §2
Procedure for human FcγRIIb: as §1, §2
Procedure for human FcγRIa: as §1, §2

B1: GpH7-B3 P329F/GpL16-k0 (antibody, human IgG1)
heavy: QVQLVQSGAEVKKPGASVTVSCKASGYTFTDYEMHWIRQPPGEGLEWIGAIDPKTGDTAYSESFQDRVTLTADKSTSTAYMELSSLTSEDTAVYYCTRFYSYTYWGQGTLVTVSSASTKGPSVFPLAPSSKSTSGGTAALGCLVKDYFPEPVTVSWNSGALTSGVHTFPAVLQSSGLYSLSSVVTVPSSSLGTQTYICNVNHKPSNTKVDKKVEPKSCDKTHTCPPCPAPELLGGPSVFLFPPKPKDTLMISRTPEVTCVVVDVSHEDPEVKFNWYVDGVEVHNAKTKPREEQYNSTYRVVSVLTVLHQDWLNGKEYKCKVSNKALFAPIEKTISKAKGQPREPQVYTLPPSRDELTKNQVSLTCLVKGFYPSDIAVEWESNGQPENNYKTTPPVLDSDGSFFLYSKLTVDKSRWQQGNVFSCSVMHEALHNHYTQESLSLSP
light: DIVMTQSPLSLPVTPGEPASISCQASESLVHSNRNTYLHWYLQKPGQSPQLLIYKVSNRFSGVPDRFSGSGSGTDFTLKISRVEAEDVGVYYCSQNTHVPPTFGQGTKVEIE
notes: B3 variant; copies: 2 + 2
In the case of B1, the relative binding activity with human FcγRIa was 79 % of GpH7-B3/GpL16-k0; in the assay with human FcγRIIa(R), 1 % of GpH7-B3/GpL16-k0; with human FcγRIIa(H) it was 1 % of GpH7-B3/GpL16-k0; with human FcγRIIb, 0 % of GpH7-B3/GpL16-k0.

B2: GpH7-B3 P329I/GpL16-k0 (antibody, human IgG1)
heavy: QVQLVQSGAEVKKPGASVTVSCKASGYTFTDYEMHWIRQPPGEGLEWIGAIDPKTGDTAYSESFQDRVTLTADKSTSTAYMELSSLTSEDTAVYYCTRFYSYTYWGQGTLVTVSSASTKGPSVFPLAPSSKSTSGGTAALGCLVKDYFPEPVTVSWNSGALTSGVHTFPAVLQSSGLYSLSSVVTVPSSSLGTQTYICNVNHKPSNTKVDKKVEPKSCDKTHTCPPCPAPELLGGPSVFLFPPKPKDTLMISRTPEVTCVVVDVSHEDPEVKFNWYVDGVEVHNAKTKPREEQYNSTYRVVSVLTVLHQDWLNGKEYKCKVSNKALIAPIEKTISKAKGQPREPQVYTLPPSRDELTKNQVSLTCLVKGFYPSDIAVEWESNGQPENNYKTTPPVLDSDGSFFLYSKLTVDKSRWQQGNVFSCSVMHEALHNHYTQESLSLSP
light: DIVMTQSPLSLPVTPGEPASISCQASESLVHSNRNTYLHWYLQKPGQSPQLLIYKVSNRFSGVPDRFSGSGSGTDFTLKISRVEAEDVGVYYCSQNTHVPPTFGQGTKVEIE
notes: B3 variant; copies: 2 + 2
Consider B2, for which the relative binding activity was 89 % of GpH7-B3/GpL16-k0 in the assay with human FcγRIa, 22 % of GpH7-B3/GpL16-k0 in the assay with human FcγRIIa(R), 21 % of GpH7-B3/GpL16-k0 with human FcγRIIa(H) and 13 % of GpH7-B3/GpL16-k0 with human FcγRIIb.

B3: GpH7-B3 P329H/GpL16-k0 (antibody, human IgG1)
heavy: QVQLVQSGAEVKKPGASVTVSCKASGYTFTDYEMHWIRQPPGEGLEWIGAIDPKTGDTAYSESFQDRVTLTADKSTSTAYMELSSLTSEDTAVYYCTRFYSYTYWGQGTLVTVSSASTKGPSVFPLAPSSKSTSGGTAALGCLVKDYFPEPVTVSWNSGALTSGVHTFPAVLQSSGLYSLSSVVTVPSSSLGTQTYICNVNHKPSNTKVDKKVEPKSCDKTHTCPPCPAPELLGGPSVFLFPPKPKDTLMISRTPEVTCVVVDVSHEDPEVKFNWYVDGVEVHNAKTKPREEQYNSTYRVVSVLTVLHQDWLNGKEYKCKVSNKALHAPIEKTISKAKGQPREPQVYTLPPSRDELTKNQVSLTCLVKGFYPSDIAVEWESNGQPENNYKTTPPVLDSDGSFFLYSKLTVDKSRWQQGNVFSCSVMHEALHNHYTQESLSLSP
light: DIVMTQSPLSLPVTPGEPASISCQASESLVHSNRNTYLHWYLQKPGQSPQLLIYKVSNRFSGVPDRFSGSGSGTDFTLKISRVEAEDVGVYYCSQNTHVPPTFGQGTKVEIE
notes: B3 variant; copies: 2 + 2
In the case of B3, the relative binding activity was 50 % of GpH7-B3/GpL16-k0 in the assay with human FcγRIa, -1 % of GpH7-B3/GpL16-k0 with human FcγRIIa(R), 0 % of GpH7-B3/GpL16-k0 with human FcγRIIa(H) and -3 % of GpH7-B3/GpL16-k0 in the assay with human FcγRIIb.

B4: GpH7-B3 P329G/GpL16-k0 (antibody, human IgG1)
heavy: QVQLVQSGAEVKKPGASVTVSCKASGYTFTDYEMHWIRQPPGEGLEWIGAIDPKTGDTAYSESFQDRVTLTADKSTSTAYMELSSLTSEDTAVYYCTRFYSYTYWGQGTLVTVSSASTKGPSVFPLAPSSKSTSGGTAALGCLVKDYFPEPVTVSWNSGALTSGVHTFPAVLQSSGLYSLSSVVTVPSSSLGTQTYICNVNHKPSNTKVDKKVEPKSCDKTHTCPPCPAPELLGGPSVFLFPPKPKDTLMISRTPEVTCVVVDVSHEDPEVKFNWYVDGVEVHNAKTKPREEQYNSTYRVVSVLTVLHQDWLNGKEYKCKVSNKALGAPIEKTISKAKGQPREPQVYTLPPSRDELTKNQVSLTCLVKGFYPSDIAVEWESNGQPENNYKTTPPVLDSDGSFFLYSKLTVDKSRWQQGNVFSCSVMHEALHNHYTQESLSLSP
light: DIVMTQSPLSLPVTPGEPASISCQASESLVHSNRNTYLHWYLQKPGQSPQLLIYKVSNRFSGVPDRFSGSGSGTDFTLKISRVEAEDVGVYYCSQNTHVPPTFGQGTKVEIE
notes: B3 variant; copies: 2 + 2
With B4, the relative binding activity with human FcγRIa was 92 % of GpH7-B3/GpL16-k0; with human FcγRIIa(R), 1 % of GpH7-B3/GpL16-k0; in the assay with human FcγRIIa(H), 1 % of GpH7-B3/GpL16-k0; in the assay with human FcγRIIb, 0 % of GpH7-B3/GpL16-k0.

B5: GpH7-B3 P329Q/GpL16-k0 (antibody, human IgG1)
heavy: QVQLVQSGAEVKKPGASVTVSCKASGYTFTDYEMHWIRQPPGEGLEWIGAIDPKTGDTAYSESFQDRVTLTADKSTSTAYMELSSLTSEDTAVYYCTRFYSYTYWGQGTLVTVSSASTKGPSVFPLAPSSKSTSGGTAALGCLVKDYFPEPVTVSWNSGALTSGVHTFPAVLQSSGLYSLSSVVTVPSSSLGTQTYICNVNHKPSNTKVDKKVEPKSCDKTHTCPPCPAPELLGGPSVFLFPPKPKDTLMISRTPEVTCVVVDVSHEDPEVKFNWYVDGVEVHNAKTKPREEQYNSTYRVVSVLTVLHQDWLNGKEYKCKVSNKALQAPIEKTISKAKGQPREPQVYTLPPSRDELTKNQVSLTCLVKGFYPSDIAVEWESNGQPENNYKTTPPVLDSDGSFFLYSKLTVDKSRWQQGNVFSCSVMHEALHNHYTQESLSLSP
light: DIVMTQSPLSLPVTPGEPASISCQASESLVHSNRNTYLHWYLQKPGQSPQLLIYKVSNRFSGVPDRFSGSGSGTDFTLKISRVEAEDVGVYYCSQNTHVPPTFGQGTKVEIE
notes: B3 variant; copies: 2 + 2
For the molecule B5, the relative binding activity with human FcγRIa was 43 % of GpH7-B3/GpL16-k0; with human FcγRIIa(R) it was -1 % of GpH7-B3/GpL16-k0; with human FcγRIIa(H) it was 0 % of GpH7-B3/GpL16-k0; in the assay with human FcγRIIb, -2 % of GpH7-B3/GpL16-k0.

B6: GpH7-B3 P329M/GpL16-k0 (antibody, human IgG1)
heavy: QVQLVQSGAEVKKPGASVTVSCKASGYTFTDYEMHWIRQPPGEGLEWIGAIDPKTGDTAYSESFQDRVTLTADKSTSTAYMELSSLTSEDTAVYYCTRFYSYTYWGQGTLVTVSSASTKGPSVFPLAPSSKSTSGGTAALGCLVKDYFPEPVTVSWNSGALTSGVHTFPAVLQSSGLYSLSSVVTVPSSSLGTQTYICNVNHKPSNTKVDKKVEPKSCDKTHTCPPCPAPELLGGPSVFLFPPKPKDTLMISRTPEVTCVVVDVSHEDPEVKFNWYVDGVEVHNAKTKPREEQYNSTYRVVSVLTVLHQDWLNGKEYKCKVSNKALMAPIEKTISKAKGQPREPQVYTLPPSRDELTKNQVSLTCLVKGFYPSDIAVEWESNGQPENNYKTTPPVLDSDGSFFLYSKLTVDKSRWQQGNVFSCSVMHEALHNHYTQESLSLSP
light: DIVMTQSPLSLPVTPGEPASISCQASESLVHSNRNTYLHWYLQKPGQSPQLLIYKVSNRFSGVPDRFSGSGSGTDFTLKISRVEAEDVGVYYCSQNTHVPPTFGQGTKVEIE
notes: B3 variant; copies: 2 + 2
For the molecule B6, the relative binding activity with human FcγRIa is 69 % of GpH7-B3/GpL16-k0; with human FcγRIIa(R), 2 % of GpH7-B3/GpL16-k0; in the assay with human FcγRIIa(H), 2 % of GpH7-B3/GpL16-k0; with human FcγRIIb, 0 % of GpH7-B3/GpL16-k0.

B7: GpH7-B3 P329N/GpL16-k0 (antibody, human IgG1)
heavy: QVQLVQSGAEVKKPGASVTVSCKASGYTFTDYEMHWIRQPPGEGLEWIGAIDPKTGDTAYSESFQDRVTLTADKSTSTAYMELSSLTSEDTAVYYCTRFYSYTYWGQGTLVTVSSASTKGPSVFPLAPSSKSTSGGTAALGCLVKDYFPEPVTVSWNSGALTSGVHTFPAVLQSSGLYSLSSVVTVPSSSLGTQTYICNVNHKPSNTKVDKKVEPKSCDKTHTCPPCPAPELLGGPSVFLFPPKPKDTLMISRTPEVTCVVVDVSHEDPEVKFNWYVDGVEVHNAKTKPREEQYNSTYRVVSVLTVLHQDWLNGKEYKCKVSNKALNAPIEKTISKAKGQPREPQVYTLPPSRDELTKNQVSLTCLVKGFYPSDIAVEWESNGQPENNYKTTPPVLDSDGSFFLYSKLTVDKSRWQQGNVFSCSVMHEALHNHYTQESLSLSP
light: DIVMTQSPLSLPVTPGEPASISCQASESLVHSNRNTYLHWYLQKPGQSPQLLIYKVSNRFSGVPDRFSGSGSGTDFTLKISRVEAEDVGVYYCSQNTHVPPTFGQGTKVEIE
notes: B3 variant; copies: 2 + 2
For B7, the relative binding activity in the assay with human FcγRIa was 45 % of GpH7-B3/GpL16-k0; in the assay with human FcγRIIa(R), 4 % of GpH7-B3/GpL16-k0; in the assay with human FcγRIIa(H), 5 % of GpH7-B3/GpL16-k0; in the assay with human FcγRIIb, 0 % of GpH7-B3/GpL16-k0.

B8: GpH7-B3 P329R/GpL16-k0 (antibody, human IgG1)
heavy: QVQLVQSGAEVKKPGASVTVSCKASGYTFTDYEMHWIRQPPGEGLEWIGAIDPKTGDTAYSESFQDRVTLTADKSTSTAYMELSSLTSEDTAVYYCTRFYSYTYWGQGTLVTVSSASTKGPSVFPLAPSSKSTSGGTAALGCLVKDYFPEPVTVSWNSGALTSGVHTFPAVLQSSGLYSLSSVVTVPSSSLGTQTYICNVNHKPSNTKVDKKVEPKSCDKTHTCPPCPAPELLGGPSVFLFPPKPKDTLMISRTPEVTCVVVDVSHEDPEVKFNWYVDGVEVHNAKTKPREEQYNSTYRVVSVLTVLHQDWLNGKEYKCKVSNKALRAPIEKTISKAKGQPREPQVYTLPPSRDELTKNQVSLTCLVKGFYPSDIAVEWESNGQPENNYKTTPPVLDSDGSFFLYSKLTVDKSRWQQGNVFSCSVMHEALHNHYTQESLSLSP
light: DIVMTQSPLSLPVTPGEPASISCQASESLVHSNRNTYLHWYLQKPGQSPQLLIYKVSNRFSGVPDRFSGSGSGTDFTLKISRVEAEDVGVYYCSQNTHVPPTFGQGTKVEIE
notes: B3 variant; copies: 2 + 2
Turning to B8, the relative binding activity was 9 % of GpH7-B3/GpL16-k0 with human FcγRIa, -2 % of GpH7-B3/GpL16-k0 in the assay with human FcγRIIa(R), -1 % of GpH7-B3/GpL16-k0 with human FcγRIIa(H) and -3 % of GpH7-B3/GpL16-k0 with human FcγRIIb.

B9: GpH7-B3 P329L/GpL16-k0 (antibody, human IgG1)
heavy: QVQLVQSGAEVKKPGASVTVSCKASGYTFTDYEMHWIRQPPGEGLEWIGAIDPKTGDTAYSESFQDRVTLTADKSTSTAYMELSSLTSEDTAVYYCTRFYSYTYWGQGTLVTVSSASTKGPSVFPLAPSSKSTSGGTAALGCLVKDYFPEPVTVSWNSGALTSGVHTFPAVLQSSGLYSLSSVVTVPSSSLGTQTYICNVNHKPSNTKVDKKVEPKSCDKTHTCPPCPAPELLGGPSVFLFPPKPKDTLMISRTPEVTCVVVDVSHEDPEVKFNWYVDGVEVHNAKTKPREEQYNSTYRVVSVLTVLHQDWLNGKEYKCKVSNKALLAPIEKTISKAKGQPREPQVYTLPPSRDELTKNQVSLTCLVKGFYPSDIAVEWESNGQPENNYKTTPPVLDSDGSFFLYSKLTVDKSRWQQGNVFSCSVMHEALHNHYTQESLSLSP
light: DIVMTQSPLSLPVTPGEPASISCQASESLVHSNRNTYLHWYLQKPGQSPQLLIYKVSNRFSGVPDRFSGSGSGTDFTLKISRVEAEDVGVYYCSQNTHVPPTFGQGTKVEIE
notes: B3 variant; copies: 2 + 2
On to B9, for which the relative binding activity in the assay with human FcγRIa is 68 % of GpH7-B3/GpL16-k0; with human FcγRIIa(R), 2 % of GpH7-B3/GpL16-k0; with human FcγRIIa(H) it was 2 % of GpH7-B3/GpL16-k0; with human FcγRIIb it was 1 % of GpH7-B3/GpL16-k0.

For the origin of these results see US20200199241A1 (Chugai, published 2020).
